Data from patent US20170058036A1 (published 2017).

T1: human dual endothelin-1/VEGF signal peptide receptor (DEspR) on intact cells (human, UniProt B0L3A2 1-85)
T1 construct: also called hDEspR; DEAR
T1 sequence: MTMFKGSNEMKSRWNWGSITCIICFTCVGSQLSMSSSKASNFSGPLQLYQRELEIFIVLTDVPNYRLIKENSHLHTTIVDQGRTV


Legend:
[1] = biological target: T1, human dual endothelin-1/VEGF signal …; assay: saturation binding of AF568-labelled mAb to DEspR+ Panc1 cells, FACS
Procedure: Saturation binding curves of monoclonal antibody (mAb) binding to DEspR on Panc1 CSCs. […] Specific binding was determined by FACS analysis using 100,000 cells in 0.25 ml containing increasing concentrations of mAbs. Incubations were done at 4° C. for 20 min and immediately subjected to FACS analysis on a BDTM LSRII Flow cytometer. Each data point was performed in duplicate.
Fully human VH5/VK1 has a slightly better Kd than VH3/VK2 fully human composite antibodies. […] (FIG. 16).

[2] = biological target: T1, human dual endothelin-1/VEGF signal …; assay: FACS, binding to DEspR on intact human cells at 4° C
Procedure: (§1) Binding was quantified by FACS with corresponding isotype labeled antibodies as background controls. […] Furthermore, 6G8 humanized monoclonal antibodies were developed using two different human IgG Fc regions-human IgG1 and hinge-stabilized human IgG4, thus affirming high-affinity binding.
Binding was determined by FACS analysis.
(§2) Neutrophils (50000/well) were incubated in the absence or presence of mAbs at 37° C. × 4 hrs and live cells counted by using Trypan blue. HUVEC-dependent angiogenesis (20,000 cells/well) was performed as described in the presence or absence of mAbs. Number of polygons and number of branch points were determined after 14 hrs of incubation at 37° C. ND, not done, indeterminate, value greater than upper limit of max dose used in these experiments.

[3] = biological target: rat DEspR on rat neutrophils (rat); assay: cell-based or functional assay
[4] = biological target: T1, human dual endothelin-1/VEGF signal …; assay: FACS, AF-568-labeled mAb on Panc1 cells
Procedure: as §1, §2

[5] = biological target: rat DEspR on rat neutrophils (rat); assay: cell-based or functional assay; remark: listed apart in the source

Row | Binder | Kd [1] [nM] | EC50 [2] [nM] | Rat Neutrophil survival, IC50 [3] [µg/mL] | EC50 [4] [nM] | Rat activated Neutrophil survival, IC50 [5] [µg/mL]
1 | 7C5B2 murine anti-human DEspR monoclonal antibody (antibody, V domains shown, Murine hybridoma antibody raised against the 9-aa N-terminal peptide of DEspR; An IgG2b isotype control was used with it; It was AF568-labelled in the FACS and imaging assays; also called 7C5-murine monoclonal antibody; lead mouse prototype anti-human DEspR monoclonal antibody) VH: QVQLKESGPGLVAPSQSLSITCTVSGFSLKSYAVSWVRQPPGKGLEWLGVIWGDGSTDYHSALISRLSISKDNSKSQFFLRLNSLQTDDTATYYCARGTGTGFAYWGQGTLVTVSA VL: DVVMTQTPLSLPVSLGDQASISCRSSQSLVHSNGNTYLHWYLQKPGQSPKLLIYKVSNRFSGVPDRFSGSGSGTDFTLKISRVEAEDLGIYFCSQCTHIPWTFGGGTNLEIK | ~33 | – | – | – | –
2 | 6g8g7-derived IgG4 humanized monoclonal antibody 1 (antibody, Hinge-stabilized (S228P) human IgG4 / kappa, transiently expressed in HEK293; also called 6g8^IgG4 humab1; 6g8IgG4 humab1) heavy: not shown light: DIVLTQSPDILSVSLGERATVNCKASQNVDSNVAWYQQKPGHPPKLLIYSASYRYSRVPDRISGSGSGTDFTLTISNLQAEDVAVYYCQQYHSYPLLAFGAGTKLELKRTVAAPSVFIFPPSDEQLKSGTASVVCLLNNFYPREAKVQWKVDNALQSGNSQESVTEQDSKDSTYSLSSTLTLSKADYEKHKVYACEVTHQGLSSPVTKSFNRGEC | – | 21.1 | 1.16 | 21.1 | 1.16
3 | IgG1 6G8G7 humanized monoclonal antibody (antibody) heavy: not shown light: DIVLTQSPDILSVSLGERATVNCKASQNVDSNVAWYQQKPGHPPKLLIYSASYRYSRVPDRISGSGSGTDFTLTISNLQAEDVAVYYCQQYHSYPLLAFGAGTKLELKRTVAAPSVFIFPPSDEQLKSGTASVVCLLNNFYPREAKVQWKVDNALQSGNSQESVTEQDSKDSTYSLSSTLTLSKADYEKHKVYACEVTHQGLSSPVTKSFNRGEC | – | – | 6.98 | – | 6.98
4 | 6G8G7 murine anti-DEspR monoclonal antibody (antibody, V domains shown) VH: EVQLQESGGGLVQPGGSLKLSCAASGFDFSRYWMSWVRQAPGKGLEWIGEINPDSSTINYTPSLKDKFIISRDTAKKTLYLQMSKVRSEDTALYYCARHGRGMDYWSQGTSVTVSS VL: DIVLTQTNQIMSASVGDRVSVTCKASQNVDSNVAWYQQKPGHSPKALIYSASYRYSRVPDRITGSGSGTDFTLTITNVQSKDLADYFCQQYHSYPLLAFGAGTKLELKR | ~33 | – | – | – | –
